From patent US20240240191, “RNA APTAMERS SPECIFIC FOR A-SYNUCLEIN PROTEIN FIBER CONFORMERS” (COMMISSARIAT A L'ENERGIE ATOMIQUE ET AUX ENERGIES …, published 2024)

Assays:
[1] = target: alpha-synuclein fibril, R-type conformer (ribbons) (UniProt P37840 P37840:1-140); assay: FP filter; nitrocellulose filter; not above random sequence
[2] = target: T1, alpha-synuclein fibril, F-type conformer (fibrils) (UniProt P37840 P37840:1-140); assay: as above
[3] = target: T1, alpha-synuclein fibril, F-type …; assay: FP filter; nitrocellulose filter; retained much more than random sequence
[4] = target: T1, alpha-synuclein fibril, F-type …; assay: FP filter; nitrocellulose filter; 10 nM aptamer, 1 uM fibers, Ts1X, 37 C
[5] = target: alpha-synuclein fibril P110 (C-terminally truncated) (UniProt P37840 P37840:1-110); assay: FP filter; nitrocellulose filter; details: tags: fibril lacking the 30 C-terminal residues, chain copies: fibril (stated)
Protocol: (§1) The affinity of candidate aptamers as well as that of aptamers from the literature was also measured against different “amyloid” type fibers (Tau1N3R fibers and Aβ40 fibers), in addition to the conformers of F and R α-syn fiber. The affinity of the candidate aptamers against the α-Syn fiber “P110” was also measured. This fiber was made from α-Syn protein truncated from amino acid n° 110 (thus missing the 30 amino acids of the C-terminal domain). The oligonucleotides (aptamers) at 10 nM (hybridized by heat shock to SpG-LNA radioactively marked with P32 for RNA2′F chemistry oligonucleotides, or directly marked with P32 for DNA oligonucleotides) were presented to proteins at 250 nM in a solution of Ts1X containing Igepal at 0.1% and ssDNA added in a 5-1 proportion relative to the oligonucleotides (that is to say between 0.135 μg/ml and 17.325 μg/ml). After 30 min of incubation at 37° C., 25 μL of each mixture is deposited on the nitrocellulose membrane, then filtered. Two washes with Ts1X are then carried out. The amounts of oligonucleotides retained on the nitrocellulose membrane are quantified by exposing the membrane to a photostimulable phosphorus screen. The Kd and Bₘₐₓ were calculated by means of the Prism software using a non-linear regression model analyzing the (specific and non-specific) total affinity of a candidate for the target, assuming that there is only one binding site on the target for the candidate. The measurements were carried out in triplicate (three independent experiments on different days) for the F and R type α-Syn fibers, and in duplicate for the other fibers (Tau1N3R and the fibers Aβ40, and P110) as well as for α-Syn monomers.

amyloid-beta 40 fibril = amyloid-beta 40 fibril (UniProt P05067 P05067:672-711); assay: FP filter; nitrocellulose filter; details: tags: Abeta40 fibers, chain copies: fibril (stated)
Protocol: as §1

[6] = target: T1, alpha-synuclein fibril, F-type …; assay: FP filter; nitrocellulose filter; Ts1X (10 mM HEPES pH 7.6, 150 mM NaCl, 5 mM KCl, 1.5 mM CaCl2, 1 mM MgCl2), 0.1% Igepal, ssDNA competitor, 37 C; Bmax 52.48 fmol; 3/3

Chain of amyloid-beta 40 fibril (P05067 672-711, one chain of several): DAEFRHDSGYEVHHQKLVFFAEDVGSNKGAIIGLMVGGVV

B1: Tau 3146 (ssDNA)
DNA: GCCTGTTGTGAGCCTCCTGTCGAACCTTTGGGGTGGCTTGACGAAGAAAGTAGTTGAGCGTTTATTCTTGTCTCCC
binding result [1]: no binding
binding result [2]: no binding

B2: 4F03-G (ssRNA)
RNA: GGGAGAGUAUCCGUUGGAGGCAUGCAACAGACGCACCGUACACACAUCUUGGCCGUUGGCUGCCCGACCAGCCAGAUCGGAAGAGCGUCGUGUAGGGCAUUGCCCCAGCGUGACUGCCUA
modifications: 2'-F on all pyrimidines
binding result [3]: binds

B3: N3-G (ssRNA)
RNA: GGGAGAGUAUCCGUUGAGGCUGACAACGCGUUUACCUCACACCACGUCAUCCGUUGCCAGAUCGGAAGAGCGUCGUGUAGGGCAUUGCCCCAGCGUGACUGCCUA
modifications: 2'-F on all pyrimidines
binding signal [4]: 3.5 fold over Scr2-G

B4: 4F02-G (ssRNA)
RNA: GGGAGAGUAUCCGUUGGAGGCAUGCUGGCAGCACGCACCGCUGACCGCUGGCUGCACUAUGCGUGUGGAGUGCAGAUCGGAAGAGCGUCGUGUAGGGCAUUGCCCCAGCGUGACUGCCUA
modifications: 2'-F on all pyrimidines
binding result [3]: binds

B5: P65-G (P65_10854) (ssRNA)
RNA: GGGAGAGUAUCCGUUGGAGGCAUCGCACAGUGUACACCUACACACAGCAUACCUGUUGGCAUCCCAGGUUGCCAGAUCGGAAGAGCGUCGUGUAGGGCAUUGCCCCAGCGUGACUGCCUA
modifications: 2'-F on all pyrimidines
binding result [3]: binds

B6: N124-G (ssRNA)
RNA: GGGAGAGUAUCCGUUGAGGCUGAUCCGACCAUGCUUCAACUUAUACCUCGGGGACUGUAGAUCGGAAGAGCGUCGUGUAGGGCAUUGCCCCAGCGUGACUGCCUA
modifications: 2'-F on all pyrimidines
binding result [5]: no binding

B7: F124-G (PF_124) (ssRNA)
RNA: GGGAGAGUAUCCGUUGGAGGCAUCACGGACACCUACCCGACGGCAUGUCAGGACACAUGUUGUGCUCCGUGUGAGAUCGGAAGAGCGUCGUGUAGGGCAUUGCCCCAGCGUGACUGCCUA
modifications: 2'-F on all pyrimidines
binding result [3]: binds

B8: 4F01-G (ssRNA)
RNA: GGGAGAGUAUCCGUUGGAGGCAUAGCAGCACACGACCAGUGUGCCCCACACCCAGUGGUGGUCUGUGGUGUGCAGAUCGGAAGAGCGUCGUGUAGGGCAUUGCCCCAGCGUGACUGCCUA
modifications: 2'-F on all pyrimidines
binding result [3]: binds

B9: 4F05-G (ssRNA)
RNA: GGGAGAGUAUCCGUUGGAGGCAUGCCGCAGGCUACACCACAGCUUCCCCUUCAGCGUGUUGUGGAUACUCGGCAGAUCGGAAGAGCGUCGUGUAGGGCAUUGCCCCAGCGUGACUGCCUA
modifications: 2'-F on all pyrimidines
binding result [3]: binds

B10: N30-G (ssRNA)
RNA: GGGAGAGUAUCCGUUGAGGCUGAUCGAUCCACGUCCGACAACGCGUUUACUCGCCAUCAGAUCGGAAGAGCGUCGUGUAGGGCAUUGCCCCAGCGUGACUGCCUA
modifications: 2'-F on all pyrimidines
binding result [5]: no binding
binding result (amyloid-beta 40 fibril): no binding
Kd [6]: 6.62 nM

B11: F5R2 (ssDNA)
DNA: ATCGAGTGGACGAGTGCCTCCGGTACGAGCTGTCTGATGGGTTTGCGCGCAGGATCCA
binding result ([5]; label: 32P): no binding
binding result (amyloid-beta 40 fibril; label: 32P): no binding
